Assay results published in the supplement of paper PMC7125110.
± gives the standard error. For some assays here: Variants at the floor of the assay were thinned out.

B1: glmS ribozyme (parent)
chain: AUAAAAGCGCCAGAACUACAGAAAUGUAGUUGACGAGGAGGAGGUUUAUCGAAUUUUCGGCGGAUGCCUCCAAA

Legend:
Conditions in all cases: with glucosamine-6-phosphate
glucosamine-6-phosphate [1] = variants of: B1; assay: kcat; higher = faster cleavage; RNA array
Outline: (§1)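 Ribozyme variants carrying barcodes were transcribed in situ on sequenced MiSeq chips by E. coli RNA polymerase and tracked at 37 °C with a hybridised Cy3 probe. They were exposed to 40 μM to 10 mM glucosamine-6-phosphate in HEPES/KCl/Mg(OAc)2 buffer. kobs came from exponential decay fits of normalised per-tile medians, and kcat and KM from weighted Michaelis–Menten fits.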

glucosamine-6-phosphate [2] = variants of: B1; assay: self-cleavage kobs at 640 uM GlcN6P; higher = faster cleavage; RNA array
Outline: as §1

glucosamine-6-phosphate [3] = variants of: B1; assay: self-cleavage kobs at 10000 uM GlcN6P; higher = faster cleavage; RNA array
Outline: as §1

glucosamine-6-phosphate [4] = variants of: B1; assay: self-cleavage kobs at 40 uM GlcN6P; higher = faster cleavage; RNA array
Outline: as §1

glucosamine-6-phosphate [5] = variants of: B1; assay: KM; higher = weaker cofactor use; RNA array
Outline: as §1

glucosamine-6-phosphate [6] = variants of: B1; assay: self-cleavage kobs at 2500 uM GlcN6P; higher = faster cleavage; RNA array
Outline: as §1

glucosamine-6-phosphate [7] = variants of: B1; assay: self-cleavage kobs at 160 uM GlcN6P; higher = faster cleavage; RNA array
Outline: as §1

Row | Variant | kcat (glucosamine-6-phosphate [1]) | self-cleavage kobs at 640 uM GlcN6P (glucosamine-6-phosphate [2]) | self-cleavage kobs at 10000 uM GlcN6P (glucosamine-6-phosphate [3]) | self-cleavage kobs at 40 uM GlcN6P (glucosamine-6-phosphate [4]) | KM (glucosamine-6-phosphate [5]) | self-cleavage kobs at 2500 uM GlcN6P (glucosamine-6-phosphate [6]) | self-cleavage kobs at 160 uM GlcN6P (glucosamine-6-phosphate [7])
1 | U31G A36U | < 1e-05 s⁻¹ | < 1e-05 s⁻¹ | < 1e-05 s⁻¹ |  |  |  | 
2 | G7U G37C | < 1e-05 s⁻¹ | < 1e-05 s⁻¹ |  | < 1e-05 s⁻¹ |  |  | 
3 | A15G G59A | 0.000151 ± 1.1e-05 s⁻¹ |  | 0.000112 ± 1.5e-05 s⁻¹ |  | 3.44 ± 0.75 mM | 6.85e-05 ± 2.3e-05 s⁻¹ | 
4 | U46G A52G | 0.00059 ± 3.1e-05 s⁻¹ | 5.26e-05 ± 1.6e-05 s⁻¹ | 0.00036 ± 4.6e-05 s⁻¹ |  | 6.37 ± 0.65 mM | 0.000185 ± 9.1e-05 s⁻¹ | 
5 | U30G U65A | 0.00108 ± 0.00019 s⁻¹ | 0.000157 ± 2.9e-05 s⁻¹ | 0.000797 ± 0.0001 s⁻¹ | 3.04e-05 ± 1.2e-05 s⁻¹ | 3.5 ± 1.1 mM | 0.000483 ± 0.00014 s⁻¹ | 
6 | U30G U65C | 0.000117 ± 2.1e-05 s⁻¹ | 4.91e-05 ± 1.7e-05 s⁻¹ | 9.72e-05 ± 2.2e-05 s⁻¹ |  |  | 0.000122 ± 2.6e-05 s⁻¹ | 
7 | A42U G66U | 6.96e-05 ± 7.8e-06 s⁻¹ |  | 5.76e-05 ± 6.8e-06 s⁻¹ | < 1e-05 s⁻¹ | 1.93 ± 0.83 mM | 4.29e-05 ± 9.1e-06 s⁻¹ | 
8 | U30G C67G | 0.000155 ± 9.6e-06 s⁻¹ | 3.99e-05 ± 9.3e-06 s⁻¹ | 0.000132 ± 1.6e-05 s⁻¹ |  | 2.05 ± 0.31 mM | 8.11e-05 ± 1e-05 s⁻¹ | 
9 | U30A A52G | 0.00117 ± 0.00025 s⁻¹ | 0.000114 ± 1.2e-05 s⁻¹ | 0.000737 ± 0.00012 s⁻¹ |  | 5.73 ± 1.5 mM | 0.00054 ± 0.00022 s⁻¹ | 4.07e-05 ± 1.7e-05 s⁻¹
10 | G37A U69A | 7.14e-05 ± 8.5e-06 s⁻¹ |  | 4.06e-05 ± 8.5e-06 s⁻¹ |  | 7.59 ± 2 mM |  | 
11 | A12C G32A | 0.00031 ± 2.5e-05 s⁻¹ | 5.72e-05 ± 1e-05 s⁻¹ | 0.000244 ± 3.1e-05 s⁻¹ |  | 3.11 ± 0.47 mM | 0.000129 ± 1.8e-05 s⁻¹ | 
12 | A39U U69A | 0.000214 ± 3.6e-05 s⁻¹ | 5.02e-05 ± 1.2e-05 s⁻¹ | 0.000197 ± 5.6e-05 s⁻¹ |  | 2.43 ± 0.77 mM | 0.000105 ± 1.3e-05 s⁻¹ | 
13 | A14U G29C U46G C70A | 2.85e-05 ± 1.1e-05 s⁻¹ |  |  |  |  |  | 
14 | U56G A64U | 9.52e-05 ± 2.5e-05 s⁻¹ |  | 6.57e-05 ± 1.9e-05 s⁻¹ |  |  | 3.01e-05 ± 1.5e-05 s⁻¹ | < 1e-05 s⁻¹
15 | A14U G41A | 0.000406 ± 0.00011 s⁻¹ | 9.05e-05 ± 2e-05 s⁻¹ | 0.000317 ± 5e-05 s⁻¹ |  |  | 0.000422 ± 8.6e-05 s⁻¹ | 
16 | U57C C58G | 3.57e-05 ± 4.2e-06 s⁻¹ |  | 3.19e-05 ± 1e-05 s⁻¹ |  |  |  | 
17 | G13C C16G | 0.000162 ± 5.6e-05 s⁻¹ | 4.75e-05 ± 2.1e-05 s⁻¹ | 0.000108 ± 1.6e-05 s⁻¹ |  |  | 4.43e-05 ± 1.5e-05 s⁻¹ | 
18 | G29C G41C | 1.23e-05 ± 4.8e-07 s⁻¹ | < 1e-05 s⁻¹ |  |  | 2.75 ± 0.29 mM |  | < 1e-05 s⁻¹
19 | G60A C67G | 1.56e-05 ± 2e-06 s⁻¹ |  |  |  |  |  | 
20 | G32U U46A | 0.000102 ± 7.4e-06 s⁻¹ |  | 7.21e-05 ± 1.5e-05 s⁻¹ |  | 4.1 ± 0.67 mM | 3.94e-05 ± 1.1e-05 s⁻¹ | 

Row | Variant | kcat (glucosamine-6-phosphate [1]) | self-cleavage kobs at 640 uM GlcN6P (glucosamine-6-phosphate [2]) | self-cleavage kobs at 10000 uM GlcN6P (glucosamine-6-phosphate [3]) | self-cleavage kobs at 40 uM GlcN6P (glucosamine-6-phosphate [4]) | KM (glucosamine-6-phosphate [5]) | self-cleavage kobs at 2500 uM GlcN6P (glucosamine-6-phosphate [6]) | self-cleavage kobs at 160 uM GlcN6P (glucosamine-6-phosphate [7])
21 | G32C A52U | < 1e-05 s⁻¹ |  |  | < 1e-05 s⁻¹ |  |  | 
22 | G66U C67U | 0.000913 ± 3.1e-05 s⁻¹ | 0.000333 ± 4.2e-05 s⁻¹ | 0.000831 ± 7.9e-05 s⁻¹ | 3.44e-05 ± 7.1e-06 s⁻¹ | 1.13 ± 0.066 mM | 0.000607 ± 8.4e-05 s⁻¹ | 0.00011 ± 1.3e-05 s⁻¹
23 | A14U A15C | 9.41e-05 ± 8.4e-06 s⁻¹ | 3.12e-05 ± 1.3e-05 s⁻¹ | 8.11e-05 ± 1.1e-05 s⁻¹ |  | 1.88 ± 0.51 mM | 5.02e-05 ± 9.3e-06 s⁻¹ | 
24 | C11A U55A | 0.000149 ± 2.2e-05 s⁻¹ | 0.000125 ± 4e-05 s⁻¹ | 0.000135 ± 1.4e-05 s⁻¹ |  |  | 0.000203 ± 4.1e-05 s⁻¹ | 
25 | C50G C61A | 0.000122 ± 1.7e-05 s⁻¹ | 0.000166 ± 1.7e-05 s⁻¹ | 0.000113 ± 9e-06 s⁻¹ | 9.57e-05 ± 9.4e-06 s⁻¹ |  | 9.96e-05 ± 1.4e-05 s⁻¹ | 0.00018 ± 2.4e-05 s⁻¹
26 | A36U C61A | < 1e-05 s⁻¹ |  | < 1e-05 s⁻¹ | < 1e-05 s⁻¹ |  |  | 
27 | U57A C67U | 0.000139 ± 3.1e-05 s⁻¹ | 5.03e-05 ± 1.7e-05 s⁻¹ | 0.000108 ± 1e-05 s⁻¹ |  |  | 5.36e-05 ± 9.6e-06 s⁻¹ | 
28 | A53G C68A | 5.55e-05 ± 7.9e-06 s⁻¹ | 6.08e-05 ± 1.2e-05 s⁻¹ | 4.54e-05 ± 7.8e-06 s⁻¹ |  |  | 6.36e-05 ± 1e-05 s⁻¹ | 5.86e-05 ± 1.5e-05 s⁻¹
29 | U31C A52U U65A | < 1e-05 s⁻¹ |  |  |  |  |  | 
30 | G40A U55C A64G | 4.82e-05 ± 7.4e-06 s⁻¹ |  |  |  | 7.42 ± 2.4 mM |  | 
31 | U30G U46A | 0.000655 ± 7e-05 s⁻¹ |  | 0.000483 ± 6.6e-05 s⁻¹ |  | 3.71 ± 0.93 mM | 0.000252 ± 5.8e-05 s⁻¹ | 
32 | A15U A53C | 0.000734 ± 0.00026 s⁻¹ | 0.000643 ± 0.00016 s⁻¹ | 0.000636 ± 0.00012 s⁻¹ |  |  |  | 0.00014 ± 4.7e-05 s⁻¹
33 | G13C C70G | 2.09e-05 ± 5.8e-06 s⁻¹ |  |  |  |  |  | 
34 | G37A U45A | 0.00537 ± 0.00043 s⁻¹ | 0.00131 ± 0.00021 s⁻¹ | 0.00477 ± 0.00049 s⁻¹ | 0.000126 ± 1.4e-05 s⁻¹ | 1.76 ± 0.21 mM | 0.0027 ± 0.0006 s⁻¹ | 0.000452 ± 8.9e-05 s⁻¹
35 | A33U U56G | 3.36e-05 ± 2.8e-06 s⁻¹ |  |  |  | 3.37 ± 0.93 mM |  | 
36 | G38A C71G | < 1e-05 s⁻¹ |  |  |  |  |  | 
37 | U55G U57A | 0.000252 ± 8.2e-06 s⁻¹ | 5.17e-05 ± 1e-05 s⁻¹ | 0.000203 ± 2e-05 s⁻¹ |  | 2.52 ± 0.19 mM | 0.000124 ± 1.5e-05 s⁻¹ | 
38 | C16G C61A | 1.02e-05 ± 1.1e-06 s⁻¹ |  |  |  |  |  | 
39 | C50A U55A | 1.62e-05 ± 1.3e-06 s⁻¹ |  |  |  | 3.47 ± 0.79 mM |  | 
40 | G37C G51A | < 1e-05 s⁻¹ |  |  |  |  |  | < 1e-05 s⁻¹
